# Changes are numbered by the printed parent chain.
# B1: AMX238.A12: DNA SELEX 2 aptamer clone (nucleic acid)
# DNA: CTACCTACGATCTGACTAGCCAGTTCTGGGAAAAATTATTTTTTTATTTCGATCGTATATGCTTACTCTCATGTAGTTCC
# modifications: DNA, backbone not given here
# notes: DNA SELEX 2 aptamer clone
# B2: AMX236.C9: DNA SELEX 2 aptamer clone (nucleic acid)
# chain: B1 DNA with A59T
# modifications: DNA, backbone not given here
# notes: DNA SELEX 2 aptamer clone
# B3: AMX237.H5: DNA SELEX 2 aptamer clone (nucleic acid)
# DNA: CTACCTACGATCTGACTAGCTCCAGTGTTTCATTTAATAACCGTGCGGTGCCTCCGTGAGCTTACTCTCATGTAGTTCC
# modifications: DNA, backbone not given here
# notes: DNA SELEX 2 aptamer clone
# B4: AMX238.D5: DNA SELEX 2 aptamer clone (nucleic acid)
# DNA: B3 DNA with C31T, T35C, C51T
# modifications: DNA, backbone not given here
# notes: DNA SELEX 2 aptamer clone
# B5: AMX237.E2: DNA SELEX 2 aptamer clone (nucleic acid)
# DNA: B3 DNA with T34C
# modifications: DNA, backbone not given here
# notes: DNA SELEX 2 aptamer clone
# B6: AMX237.E9: DNA SELEX 2 aptamer clone (nucleic acid)
# DNA: B3 DNA with C31T, A32G, T34C
# modifications: DNA, backbone not given here
# notes: DNA SELEX 2 aptamer clone
# B7: AMX237.B4: DNA SELEX 2 aptamer clone (nucleic acid)
# DNA: B3 DNA with T34C, T35C, C52T
# modifications: DNA, backbone not given here
# notes: DNA SELEX 2 aptamer clone
# B8: AMX237.C4: DNA SELEX 2 aptamer clone (nucleic acid)
# DNA: CTACCTACGATCTGACTAGCTTTCAGTCTTCCACATTTATAGGGTTTGGCATTGGGTCTGGCTTACTCTCATGTAGTTCC
# modifications: DNA, backbone not given here
# notes: DNA SELEX 2 aptamer clone
# B9: AMX237.G2: DNA SELEX 2 aptamer clone (nucleic acid)
# DNA: B8 DNA with C31T, C34T
# modifications: DNA, backbone not given here
# notes: DNA SELEX 2 aptamer clone
# B10: AMX237.E5: DNA SELEX 2 aptamer clone (nucleic acid)
# DNA: B8 DNA with C32T
# modifications: DNA, backbone not given here
# notes: DNA SELEX 2 aptamer clone
# B11: AMX237.F5: DNA SELEX 2 aptamer clone (nucleic acid)
# DNA: B8 DNA with C24T
# modifications: DNA, backbone not given here
# notes: DNA SELEX 2 aptamer clone
# B12: AMX238.H11: DNA SELEX 2 aptamer clone (nucleic acid)
# DNA: B8 DNA with C31T
# modifications: DNA, backbone not given here
# notes: DNA SELEX 2 aptamer clone
# B13: AMX237.F1: DNA SELEX 2 aptamer clone (nucleic acid)
# DNA: B8 DNA with A35G
# modifications: DNA, backbone not given here
# notes: DNA SELEX 2 aptamer clone
# B14: AMX238.F7: DNA SELEX 2 aptamer clone (nucleic acid)
# DNA: CTACCTACGATCTGACTAGCAAGGGGATTGGCTCCGGGTCTGGCGTGCTTGGCATCTTTGGCTTACTCTCATGTAGTTCC
# modifications: DNA, backbone not given here
# notes: DNA SELEX 2 aptamer clone
# B15: AMX236.H1: DNA SELEX 2 aptamer clone (nucleic acid)
# chain: CTACCTACGATCTGACTAGCCTCAGATTGACTCCGGCCGACTTGTTTTAATCTTCTGAGTGCTTACTCTCATGTAGTTCC
# modifications: DNA, backbone not given here
# notes: DNA SELEX 2 aptamer clone
# B16: AMX236.G1: DNA SELEX 2 aptamer clone (nucleic acid)
# chain: B15 chain with C38T
# modifications: DNA, backbone not given here
# notes: DNA SELEX 2 aptamer clone
# B17: AMX237.B12: DNA SELEX 2 aptamer clone (nucleic acid)
# DNA: CTACCTACGATCTGACTAGCGGAATGAGAATGCAGGTGGATTGCTCAGGTCTGCTGGCTGCTTACTCTCATGTAGTTCC
# modifications: DNA, backbone not given here
# notes: DNA SELEX 2 aptamer clone
# B18: AMX238.F6: DNA SELEX 2 aptamer clone (nucleic acid)
# DNA: B17 DNA with A29T, A34T
# modifications: DNA, backbone not given here
# notes: DNA SELEX 2 aptamer clone
# B19: AMX236.C6: DNA SELEX 2 aptamer clone (nucleic acid)
# chain: B17 DNA with A30G, A34T
# modifications: DNA, backbone not given here
# notes: DNA SELEX 2 aptamer clone
# B20: AMX238.A11: DNA SELEX 2 aptamer clone (nucleic acid)
# DNA: B17 DNA with A30G, C33T, A34T
# modifications: DNA, backbone not given here
# notes: DNA SELEX 2 aptamer clone
# B21: AMX236.E2: DNA SELEX 2 aptamer clone (nucleic acid)
# chain: B17 DNA with A29T, A34T, G36A
# modifications: DNA, backbone not given here
# notes: DNA SELEX 2 aptamer clone
# B22: AMX238.A6: DNA SELEX 2 aptamer clone (nucleic acid)
# DNA: B17 DNA with G36A
# modifications: DNA, backbone not given here
# notes: DNA SELEX 2 aptamer clone
# B23: AMX238.G4: DNA SELEX 2 aptamer clone (nucleic acid)
# DNA: CTACCTACGATCTGACTAGCTTGTCGCACTTTTGGTTGGTCTGGTTGGTTCTAAGTGCGCTTACTCTCATGTAGTTCC
# modifications: DNA, backbone not given here
# notes: DNA SELEX 2 aptamer clone
# B24: AMX238.H9: DNA SELEX 2 aptamer clone (nucleic acid)
# DNA: B23 DNA with C51T
# modifications: DNA, backbone not given here
# notes: DNA SELEX 2 aptamer clone
# B25: AMX236.F7: DNA SELEX 2 aptamer clone (nucleic acid)
# chain: CTACCTACGATCTGACTAGCCCCCACTTATCGTGTACCTTATGATATGTCGAATACTCTTGCTTACTCTCATGTAGTTCC
# modifications: DNA, backbone not given here
# notes: DNA SELEX 2 aptamer clone
# B26: AMX237.B1: DNA SELEX 2 aptamer clone (nucleic acid)
# chain: CTACCTACGATCTGACTAGCTTGGTAGCGACACAGTGGAGCTGCGGTTTGGTCGACGTCAGCTTACTCTCATGTAGTTCC
# modifications: DNA, backbone not given here
# notes: DNA SELEX 2 aptamer clone
# B27: AMX236.B3: DNA SELEX 2 aptamer clone (nucleic acid)
# chain: CTACCTACGATCTGACTAGCCTTACCTATTCCCTTCTGCGGAATACGTCGAGTACTATGCTTACTCTCATGTAGTTCC
# modifications: DNA, backbone not given here
# notes: DNA SELEX 2 aptamer clone
# B28: AMX238.D9: DNA SELEX 2 aptamer clone (nucleic acid)
# DNA: CTACCTACGATCTGACTAGCCAGTTCTGGGAAAAATCATTTTTTATTTCGATCGTATTTGCTTACTCTCATGTAGTTCC
# modifications: DNA, backbone not given here
# notes: DNA SELEX 2 aptamer clone
# B29: AMX238.A3: DNA SELEX 2 aptamer clone (nucleic acid)
# DNA: CTACCTACGATCTGACTAGCTCAAAGTATTACTTATTGGCAATAAGTCGTTTACTCTATAGCTTACTCTCATGTAGTTCC
# modifications: DNA, backbone not given here
# notes: DNA SELEX 2 aptamer clone
# B30: AMX237.D11: DNA SELEX 2 aptamer clone (nucleic acid)
# DNA: CTACCTACGATCTGACTAGCTCCAGTGTTTTATATAATAACCGTGCGGTGCCTCCGTGATGCTTACTCTCATGTAGTTCC
# modifications: DNA, backbone not given here
# notes: DNA SELEX 2 aptamer clone
# B31: AMX237.F6: DNA SELEX 2 aptamer clone (nucleic acid)
# DNA: B30 DNA with A34C
# modifications: DNA, backbone not given here
# notes: DNA SELEX 2 aptamer clone
# B32: AMX237.C7: DNA SELEX 2 aptamer clone (nucleic acid)
# DNA: B30 DNA with A34T, T35C
# modifications: DNA, backbone not given here
# notes: DNA SELEX 2 aptamer clone
# Tests used:
# [1] = tested on: rabbit vWF A1 domain (SEQ ID NO 6); test: 3-point dot blot screen, rabbit vWF A1 domain; assay type: binding; conditions: 3-point dot blot screen, 20 nM rabbit vWF A1 domain; ratio of fraction of aptamer bound with target protein to fraction bound without protein
# How it was run: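 Rabbit vWF A1 domain binding was screened by dot blot using three conditions: no target protein, human vWF, and rabbit vWF A1 domain at 100 nM (20 nM in the screen run twice). Radiolabeled aptamer bound to nitrocellulose was quantified, and results are expressed as the ratio of bound fraction with protein to bound fraction without protein.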
# full length human vWF = test: 3-point dot blot screen, full length human vWF; assay type: binding; conditions: 20 nM full length human vWF, ratio of fraction of aptamer bound with target protein to fraction bound without protein
# Description: When a significant positive ratio of binding of DNA in the presence of human or rabbit vWF A1 domain versus in the absence of protein was seen, the pools were cloned using the TOPO TA cloning kit (Invitrogen Cat. #45-0641, Carlsbad, Calif.) according to the manufacturer's instructions. Round 7 and 11 pool templates were cloned and sequenced (218 total sequences), producing 146 unique clones within 12 sequence families of which sequences from six families show vWF target binding activity. All unique clones were assayed twice in a 3-point dot blot screen (no protein target control, 20 nM full length human vWF (Calbiochem Cat. #681300, La Jolla, Calif.), or 20 nM rabbit vWF A1 domain. The data is presented in the third and fourth columns of Table 17 below as the ratio of the fraction of the aptamer bound to the nitrocellulose in the presence of the target protein to the fraction of aptamer bound in the absence of the target protein.
# rabbit vWF A1 domain (SEQ ID NO 6), sequence (as listed by the source): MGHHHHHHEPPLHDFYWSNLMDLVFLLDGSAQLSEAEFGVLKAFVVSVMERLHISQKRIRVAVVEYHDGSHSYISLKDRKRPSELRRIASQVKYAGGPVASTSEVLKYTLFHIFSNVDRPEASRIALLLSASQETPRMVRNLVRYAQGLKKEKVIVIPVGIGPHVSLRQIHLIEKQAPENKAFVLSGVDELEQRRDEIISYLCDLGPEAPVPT
Molecule,Screen Rabbit/No Protein [1],Screen- Human/No Protein (full length human vWF)
B1,0.99,1.23
B2,1.00,1.24
B3,1.61,1.63
B4,1.40,1.46
B5,1.61,1.61
B6,2.06,2.13
B7,1.38,1.42
B8,1.31,0.97
B9,1.16,1.02
B10,1.15,0.97
B11,1.22,0.99
B12,1.14,0.98
B13,1.22,0.98
B14,1.88,1.20
B15,1.14,1.10
B16,1.51,1.47

Molecule,Screen Rabbit/No Protein [1],Screen- Human/No Protein (full length human vWF)
B17,4.67,1.13
B18,5.36,1.18
B19,5.77,1.06
B20,4.54,0.85
B21,3.59,0.93
B22,3.47,0.92
B23,1.39,1.09
B24,1.32,1.11
B25,1.20,1.18
B26,2.10,2.00
B27,1.41,1.54
B28,0.97,1.22
B29,1.03,1.36
B30,1.17,1.16
B31,1.21,1.20
B32,1.16,1.15

# From patent publication US7998940B2, “Aptamers to von Willebrand factor and their use as thrombotic disease therapeutics” (Archemix Corp., priority 2004, dated 2011)
